B1: M2638 (bispecific antibody)
heavy: EVQLVESGGGLVQPGGSLRLSCAASGFTFSTYAMNWVRQAPGKGLEWVGRIRSKYNNYATYYADSVKGRFTISRDDSKNTLYLQMNSLRAEDTAVYYCVRHGNFGDSYVSWFAYWGQGTLVTVSSASTKGPSVFPLAPSSKSTSGGTAALGCLVKDYFPEPVTVSWNSGALTSGVHTFPAVLQSSGLYSLSSVVTVPSSSLGTQTYICNVNHKPSNTKVDKKVEPKSCGGGGSQEQLVESGGGLVQPGGSLKLSCKASGFDFSTYGVSWVRQAPGKGLEWIGYIDPVYGSTYYASWVNGRFTISSHNAQNTLYLQLNSLTAADTATYFCVRDLYAGSSGYYMIYSLWGPGTLVTVSSGGGGSGGGGSGGGGSGGGGSELVMTQTPSSVSAAVGGTVTIKCQSSQSVYNNLLGWYQQKPGQPPKLLIYSASTLASGVPSRFSGSGSGTEFTLTISGVQADDAASYYCQGTYYNGDWYYPFGGGTEVVVK
light: QAVVTQEPSLTVSPGGTVTLTCGSSTGAVTTSNYANWVQQKPGKSPRGLIGGTNKRAPGVPARFSGSLLGGKAALTISGAQPEDEADYYCALWYSNHWVFGGGTKLTVLGQPKAAPSVTLFPPSSEELQANKATLVCLISDFYPGAVTVAWKADSSPVKAGVETTTPSKQSNNKYAASSYLSLTPEQWKSHRSYSCQVTHEGSTVEKTVAPTECS
notes: Monovalent Fab-scFv: anti-CD3 Fab with the rabbit anti-pMHC scFv on the C-terminus of the Fab heavy chain; also called rabbit hit M2638; HLA-A*02:01/PRAMExCD3 Fab-scFv
B2: M3202 (bispecific antibody)
heavy: EVQLVESGGGLVQPGGSLRLSCAASGFTFSTYAMNWVRQAPGKGLEWVGRIRSKYNNYATYYADSVKGRFTISRDDSKNTLYLQMNSLRAEDTAVYYCVRHGNFGDSYVSWFAYWGQGTLVTVSSASTKGPSVFPLAPSSKSTSGGTAALGCLVKDYFPEPVTVSWNSGALTSGVHTFPAVLQSSGLYSLSSVVTVPSSSLGTQTYICNVNHKPSNTKVDKKVEPKSCGGGGSDIQMTQSPSSLSASVGDRVTITCRSSQSVYNNLLGWYQQKPGKAPKLLIYSASTLASGVPSRFSGSGSGTDFTLTISSLQPEDSATYYCQGTYYTGDWYYPFGCGTKVEIKGGGGSGGGGSGGGGSGGGGSQVQLVESGGGSVQPGRSLRLSCAASGFDFSTYGVSWVRQAPGKCLEWIGYIDPVYGSTHYADSVKGRFTISRDNSKNTLYLQMNSLRAEDTASYYCVRDLYAGSSGYYMIYSLWGQGTSVTVSS
light: QAVVTQEPSLTVSPGGTVTLTCGSSTGAVTTSNYANWVQQKPGKSPRGLIGGTNKRAPGVPARFSGSLLGGKAALTISGAQPEDEADYYCALWYSNHWVFGGGTKLTVLGQPKAAPSVTLFPPSSEELQANKATLVCLISDFYPGAVTVAWKADSSPVKAGVETTTPSKQSNNKYAASSYLSLTPEQWKSHRSYSCQVTHEGSTVEKTVAPTECS
notes: Humanized variant of M2638, monovalent Fab-scFv
B3: M3284 (bispecific antibody)
heavy: EVQLVESGGGLVQPGGSLRLSCAASGFTFSTYAMNWVRQAPGKGLEWVGRIRSKYNNYATYYADSVKGRFTISRDDSKNTLYLQMNSLRAEDTAVYYCVRHGNFGDSYVSWFAYWGQGTLVTVSSASTKGPSVFPLAPSSKSTSGGTAALGCLVKDYFPEPVTVSWNSGALTSGVHTFPAVLQSSGLYSLSSVVTVPSSSLGTQTYICNVNHKPSNTKVDKKVEPKSCGGGGSDIQMTQSPSSLSASVGDRVTITCRSSQSVYNNLLGWYQQKPGKAPKLLIYSASTLASGVPSRFSGSGSGTDFTLTISSLQPEDSATYYCQGTYYTGDWYYPFGCGTKVEIKGGGGSGGGGSGGGGSGGGGSQVQLVESGGGSVQPGRSLRLSCAASGFTVSTYGVSWVRQAPGKCLEWIGYIDPVYGSTHYADSVKGRFTISRDNSKNTLYLQMNSLRAEDTASYYCVRDLYAGSSGYYMIYSLWGQGTSVTVSS
light: QAVVTQEPSLTVSPGGTVTLTCGSSTGAVTTSNYANWVQQKPGKSPRGLIGGTNKRAPGVPARFSGSLLGGKAALTISGAQPEDEADYYCALWYSNHWVFGGGTKLTVLGQPKAAPSVTLFPPSSEELQANKATLVCLISDFYPGAVTVAWKADSSPVKAGVETTTPSKQSNNKYAASSYLSLTPEQWKSHRSYSCQVTHEGSTVEKTVAPTECS
notes: as for B2
B4: M3283 (bispecific antibody)
heavy: EVQLVESGGGLVQPGGSLRLSCAASGFTFSTYAMNWVRQAPGKGLEWVGRIRSKYNNYATYYADSVKGRFTISRDDSKNTLYLQMNSLRAEDTAVYYCVRHGNFGDSYVSWFAYWGQGTLVTVSSASTKGPSVFPLAPSSKSTSGGTAALGCLVKDYFPEPVTVSWNSGALTSGVHTFPAVLQSSGLYSLSSVVTVPSSSLGTQTYICNVNHKPSNTKVDKKVEPKSCGGGGSDIQMTQSPSSLSASVGDRVTITCRSSQSVYNNLLGWYQQKPGKAPKLLIYSASTLASGVPSRFSGSGSGTDFTLTISSLQPEDSATYYCQGTYYTGDWYYPFGCGTKVEIKGGGGSGGGGSGGGGSGGGGSQVQLVESGGGSVQPGRSLRLSCAASGFTFSTYGVSWVRQAPGKCLEWIGYIDPVYGSTHYADSVKGRFTISRDNSKNTLYLQMNSLRAEDTASYYCVRDLYAGSSGYYMIYSLWGQGTSVTVSS
light: QAVVTQEPSLTVSPGGTVTLTCGSSTGAVTTSNYANWVQQKPGKSPRGLIGGTNKRAPGVPARFSGSLLGGKAALTISGAQPEDEADYYCALWYSNHWVFGGGTKLTVLGQPKAAPSVTLFPPSSEELQANKATLVCLISDFYPGAVTVAWKADSSPVKAGVETTTPSKQSNNKYAASSYLSLTPEQWKSHRSYSCQVTHEGSTVEKTVAPTECS
notes: as for B2
B5: M3285 (bispecific antibody)
heavy: EVQLVESGGGLVQPGGSLRLSCAASGFTFSTYAMNWVRQAPGKGLEWVGRIRSKYNNYATYYADSVKGRFTISRDDSKNTLYLQMNSLRAEDTAVYYCVRHGNFGDSYVSWFAYWGQGTLVTVSSASTKGPSVFPLAPSSKSTSGGTAALGCLVKDYFPEPVTVSWNSGALTSGVHTFPAVLQSSGLYSLSSVVTVPSSSLGTQTYICNVNHKPSNTKVDKKVEPKSCGGGGSDIQMTQSPSSLSASVGDRVTITCRSSQSVYNNLLGWYQQKPGKAPKLLIYSASTLASGVPSRFSGSGSGTDFTLTISSLQPEDSATYYCQGTYYTGDWYYPFGCGTKVEIKGGGGSGGGGSGGGGSGGGGSQVQLVESGGGSVQPGRSLRLSCAASGFDFSTYGVSWVRQAPGKCLEWIGYIDPVYGSTHYADSVKGRFTISRDNSKNTLYLQMNSLRAEDTASYYCARDLYAGSSGYYMIYSLWGQGTSVTVSS
light: QAVVTQEPSLTVSPGGTVTLTCGSSTGAVTTSNYANWVQQKPGKSPRGLIGGTNKRAPGVPARFSGSLLGGKAALTISGAQPEDEADYYCALWYSNHWVFGGGTKLTVLGQPKAAPSVTLFPPSSEELQANKATLVCLISDFYPGAVTVAWKADSSPVKAGVETTTPSKQSNNKYAASSYLSLTPEQWKSHRSYSCQVTHEGSTVEKTVAPTECS
notes: as for B2
B6: M2913 (bispecific antibody)
heavy: EVQLVESGGGLVQPGGSLRLSCAASGFTFSTYAMNWVRQAPGKGLEWVGRIRSKYNNYATYYADSVKGRFTISRDDSKNTLYLQMNSLRAEDTAVYYCVRHGNFGDSYVSWFAYWGQGTLVTVSSASTKGPSVFPLAPSSKSTSGGTAALGCLVKDYFPEPVTVSWNSGALTSGVHTFPAVLQSSGLYSLSSVVTVPSSSLGTQTYICNVNHKPSNTKVDKKVEPKSCGGGGSDIQMTQSPSSLSASVGDRVTITCQSSQSVYNNLLGWYQQKPGKAPKLLIYSASTLASGVPSRFSGSGSGTDFTLTISSLQPEDFATYYCQGTYYNGDWYYPFGCGTKVEIKGGGGSGGGGSGGGGSGGGGSEVQLVESGGGSVQPGGSLRLSCAASGFDFSTYGVSWVRQAPGKCLEWIGYIDPVYGSTYYASWVNGRFTISRDNSKNTLYLQMNSLRAEDTASYYCVRDLYAGSSGYYMIYSLWGQGTSVTVSS
light: QAVVTQEPSLTVSPGGTVTLTCGSSTGAVTTSNYANWVQQKPGKSPRGLIGGTNKRAPGVPARFSGSLLGGKAALTISGAQPEDEADYYCALWYSNHWVFGGGTKLTVLGQPKAAPSVTLFPPSSEELQANKATLVCLISDFYPGAVTVAWKADSSPVKAGVETTTPSKQSNNKYAASSYLSLTPEQWKSHRSYSCQVTHEGSTVEKTVAPTECS
notes: as for B2
B7: M3182 (bispecific antibody)
heavy: EVQLVESGGGLVQPGGSLRLSCAASGFTFSTYAMNWVRQAPGKGLEWVGRIRSKYNNYATYYADSVKGRFTISRDDSKNTLYLQMNSLRAEDTAVYYCVRHGNFGDSYVSWFAYWGQGTLVTVSSASTKGPSVFPLAPSSKSTSGGTAALGCLVKDYFPEPVTVSWNSGALTSGVHTFPAVLQSSGLYSLSSVVTVPSSSLGTQTYICNVNHKPSNTKVDKKVEPKSCGGGGSDIQMTQSPSSLSASVGDRVTITCRSSQSVYNNLLGWYQQKPGKAPKLLIYSASTLASGVPSRFSGSGSGTDFTLTISSLQPEDFATYYCQGTYYTGDWYYPFGCGTKVEIKGGGGSGGGGSGGGGSGGGGSQVQLVESGGGSVQPGRSLRLSCAASGFDFSTYGVSWVRQAPGKCLEWIGYIDPVYGSTHYADSVKGRFTISRDNSKNTLYLQMNSLRAEDTASYYCVRDLYAGSSGYYMIYSLWGQGTSVTVSS
light: QAVVTQEPSLTVSPGGTVTLTCGSSTGAVTTSNYANWVQQKPGKSPRGLIGGTNKRAPGVPARFSGSLLGGKAALTISGAQPEDEADYYCALWYSNHWVFGGGTKLTVLGQPKAAPSVTLFPPSSEELQANKATLVCLISDFYPGAVTVAWKADSSPVKAGVETTTPSKQSNNKYAASSYLSLTPEQWKSHRSYSCQVTHEGSTVEKTVAPTECS
notes: as for B2

The results in this text go back to patent US20250333514A1 (CDR LIFE, published 2025).

This test has as its target T1, HLA-A*02:01/PRAME antigen (recombinant, … on HLA-A*02:01) (human, Complex biotinylated for SPR capture; site of biotin and any tag not stated, not in the letters.).
T1 construct: also called PRAME target; pMHC
In words: SPR (Biacore 8K), biotinylated pMHC captured, Fab-scFv analyte, single-cycle kinetics, 1:1 fit. As for the experimental part: Recombinantly produced hits in Fab-scFv format, as described in Example 4, were evaluated for their ability to bind HLA-A*02:01/PRAME antigen. Binding characterization was performed by surface plasmon resonance (SPR) using a Biacore™ 8k (Cytiva) device. Briefly, 3000 RU of Biotin CAPture reagent (Cytiva) was immobilized on a Series S Sensor Chip CAP (Cytiva) and the biotinylated ligand HLA-A*02:01/PRAME (SEQ ID NO: 68) was diluted in HPS-EP+ running buffer (TEKNOVA) and captured for 300 s at a flow rate of 2 μL/min at flow cell 2 resulting in a ligand capture level of >100 RU. Subsequently, at least three consecutive analyte injections were performed at suitable concentrations applying the single-cycle-kinetics mode at a flow rate of 30 μL/min with an association time of 90 s and the dissociation time set to >400 s. The chip surface was regenerated according to the manufacturer's instructions. After reference flow cell signal and blank injections subtraction, the data was fit to a 1:1 Langmuir binding model to determine the association rate constant kₐ and dissociation rate constant kd and calculate the equilibrium dissociation constant KD (kd/kₐ), also denoted as affinity, using the Biacore™ Insight Evaluation software.
For orientation: In SPR one partner is held on a chip, and binding of the other changes the refractive index at the surface.
Consider B1, for which the equilibrium dissociation constant (Kd) (commonly a measure of binding affinity in units of concentration) is 0.23 nM.

With B2, the Kd was found to be 0.04 nM. As for B3, the Kd was 0.27 nM.

B4: the equilibrium dissociation constant (Kd) was 0.09 nM. As to B5, the Kd was 1.3 nM. To B6 belongs 0.66 nM; to B7, 0.04 nM.
